Test system: hemagglutinin epitope-tagged Del301-303 human alpha-2B adrenergic receptor

GRK2 (βARK1)
agonist-promoted phosphorylation relative to wild-type: the Del301-303 receptor displayed -56% of wild-type phosphorylation | basal phosphorylation of the receptor: Basal phosphorylation was equivalent between the two receptors.
